In the supplement of paper PMC10567573:

B1: STEAP1 (parent)
chain: LWKMKPRRNLEEDDYLHKDTGETS
B2: TMEM106C (parent)
chain: SEQLVNFTGKAEMGGPFSYVYFFC

Variants of: B1
Assay: protein stability index of a GFP-peptide fusion (GPS, HEK-293T) (PSI 1-6); higher = more stable
Conditions: c terminus: a fixed tail appended
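Further: lentivirally expressed fusions sorted by FACS into six bins by GFP to DsRed ratio, PSI derived from sequencing read proportions per bin multiplied by bin number.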

| Variant | protein stability index |
| --- | --- |
| E11D | 4 |
| E11C | 3.79 |
| E11Y | 3.09 |
| E11N | 3.83 |
| E11M | 3.96 |
| E11G | 3.93 |
| E11L | 3.88 |
| E11Q | 4.12 |
| E11F | 3.61 |
| E11W | 3.22 |
| E11H | 4.26 |
| E11R | 4.04 |
| E11T | 4.15 |
| E11A | 3.89 |
| E11K | 4.58 |
| E11S | 4.06 |
| E11I | 3.82 |
| E11P | 4.2 |
| E11V | 4.28 |
| D13M | 3.8 |
| D13G | 4.61 |
| D13K | 4.43 |
| D13H | 3.88 |
| D13S | 3.85 |
| D13A | 3.94 |

| Variant | protein stability index |
| --- | --- |
| D13V | 3.87 |
| D13C | 3.65 |
| D13Q | 4.63 |
| D13L | 3.88 |
| D13T | 4.19 |
| D13W | 3.21 |
| D13N | 4.35 |
| D13P | 4.45 |
| D13I | 3.84 |
| D13Y | 4.17 |
| D13E | 4.84 |
| D13F | 3.83 |
| D13R | 4.15 |
| K18G | 4.73 |
| K18Y | 4.03 |
| K18T | 4.6 |
| K18P | 4.47 |
| K18D | 4.7 |
| K18E | 4.87 |
| K18N | 4.51 |
| K18W | 3.81 |
| K18F | 3.38 |
| K18M | 4.29 |
| K18S | 4.53 |
| K18Q | 4.46 |

| Variant | protein stability index |
| --- | --- |
| K18C | 4.28 |
| K18A | 5.12 |
| K18H | 4.62 |
| K18L | 3.93 |
| K18I | 3.58 |
| K18V | 4.21 |
| K18R | 4.75 |
| N9R | 4.23 |
| N9M | 4.36 |
| N9P | 4.11 |
| N9S | 4.56 |
| N9Y | 4.07 |
| N9K | 4.44 |
| N9W | 3.08 |
| N9L | 4.15 |
| N9V | 4.18 |
| N9I | 4.15 |
| N9T | 4.49 |
| N9H | 4.47 |
| N9Q | 4.41 |
| L10R | 4.24 |
| L10Q | 4.72 |
| L10E | 4.89 |
| L10Y | 4.1 |
| L10G | 4.02 |

| Variant | protein stability index |
| --- | --- |
| L10T | 4.69 |
| L10P | 4.86 |
| L10V | 4.34 |
| L10F | 4.24 |
| L10D | 4.9 |
| L10K | 4.48 |
| L10I | 4.67 |
| L10M | 4.26 |
| L10N | 4.4 |
| L10C | 3.9 |
| L10S | 5.12 |
| L10W | 4.41 |
| L10A | 4.86 |
| L10H | 4.22 |
| S24T | 4.6 |
| S24Y | 4.11 |
| S24H | 4.31 |
| S24C | 3.89 |
| S24N | 4.72 |
| S24A | 4.61 |
| S24Q | 3.85 |
| S24D | 4.65 |
| S24M | 4.16 |
| S24F | 4.22 |
| S24W | 3.5 |

| Variant | protein stability index |
| --- | --- |
| S24V | 4.38 |
| S24L | 4.1 |
| S24I | 3.96 |
| S24R | 3.97 |
| S24E | 4.52 |
| S24P | 4.3 |
| S24K | 4.47 |
| S24G | 4.46 |
| D19K | 4.23 |
| D19E | 4.41 |
| D19H | 3.83 |
| D19A | 3.94 |
| D19R | 4.09 |
| D19G | 4.45 |
| D19C | 3.8 |
| D19P | 4.36 |
| D19Y | 3.81 |
| D19T | 3.83 |
| D19L | 3.33 |
| D19Q | 4.1 |
| D19S | 3.48 |
| D19I | 3.46 |
| D19M | 3.81 |
| D19V | 3.43 |
| D19F | 3 |

| Variant | protein stability index |
| --- | --- |
| D19W | 2.87 |
| D19N | 4.39 |
| L16V | 4.52 |
| L16N | 4.97 |
| L16P | 4.2 |
| L16M | 4.24 |
| L16G | 5.08 |
| L16H | 4.36 |
| L16Q | 4.87 |
| L16C | 4.63 |
| L16K | 4.59 |
| L16S | 4.6 |
| L16W | 4.19 |
| L16A | 4.74 |
| L16R | 4.1 |
| L16Y | 4.14 |
| L16F | 4.26 |
| L16E | 4.79 |
| L16T | 4.74 |
| L16D | 4.92 |
| L16I | 4.23 |
| E22D | 4.47 |
| E22N | 4.22 |
| E22C | 4 |
| E22L | 4.13 |

| Variant | protein stability index |
| --- | --- |
| E22W | 2.56 |
| E22K | 3.83 |
| E22H | 3.89 |
| E22Y | 3.46 |
| E22S | 4.08 |
| E22P | 3.98 |
| E22I | 3.73 |
| E22T | 3.7 |
| E22G | 4.37 |
| E22V | 3.86 |
| E22F | 3.83 |
| E22R | 3.69 |
| E22A | 3.92 |
| E22M | 3.85 |
| E22Q | 4.11 |
| G21M | 3.93 |
| G21H | 4.42 |
| G21D | 4.25 |
| G21T | 4.49 |
| G21V | 3.64 |
| G21Q | 4.33 |
| G21P | 4.77 |
| G21E | 4.65 |
| G21N | 4.36 |
| G21Y | 4.08 |

| Variant | protein stability index |
| --- | --- |
| G21C | 4.21 |
| G21L | 3.91 |
| G21W | 3.15 |
| G21A | 4.65 |
| G21R | 3.89 |
| G21I | 3.31 |
| G21S | 4.59 |
| G21F | 3.92 |
| G21K | 4.26 |
| T23Q | 4.52 |
| T23N | 4.37 |
| T23R | 4.48 |
| T23F | 3.92 |
| T23K | 4.73 |
| T23S | 4.77 |
| T23C | 4.05 |
| T23E | 5.03 |
| T23I | 3.53 |
| T23L | 4.12 |
| T23A | 4.63 |
| T23W | 3.54 |
| T23H | 4.4 |
| T23V | 4.12 |
| T23D | 4.59 |
| T23P | 4.92 |

| Variant | protein stability index |
| --- | --- |
| T23G | 4.26 |
| T23Y | 4.02 |
| T23M | 3.99 |
| Y15K | 4.84 |
| Y15T | 5.04 |
| Y15I | 3.61 |
| Y15E | 4.77 |
| Y15D | 5.15 |
| Y15L | 4.33 |
| Y15C | 4.66 |
| Y15M | 4.68 |
| Y15F | 4.14 |
| Y15R | 4.53 |
| Y15N | 4.57 |
| Y15H | 4.66 |
| Y15V | 5.07 |
| Y15A | 5.02 |
| Y15W | 4.26 |
| Y15P | 4.81 |
| Y15Q | 4.92 |
| Y15G | 4.83 |
| Y15S | 5.16 |
| E12T | 4.28 |
| E12L | 3.74 |
| E12K | 4.25 |

| Variant | protein stability index |
| --- | --- |
| E12C | 3.96 |
| E12P | 4.26 |
| E12H | 3.75 |
| E12G | 4.16 |
| E12V | 4.09 |
| E12A | 4.06 |
| E12D | 4.46 |
| E12Y | 3.3 |
| E12R | 4.07 |
| E12F | 3.51 |
| E12S | 4.45 |
| E12Q | 4.23 |
| E12M | 3.63 |
| E12W | 3.16 |
| E12N | 4.15 |
| E12I | 3.66 |
| T20Q | 4.71 |
| T20E | 4.8 |
| T20A | 4.39 |
| T20R | 4.44 |
| T20P | 4.51 |
| T20M | 3.84 |
| T20L | 4.13 |
| T20I | 4.12 |
| T20V | 4.05 |

| Variant | protein stability index |
| --- | --- |
| T20G | 4.58 |
| T20N | 4.46 |
| T20D | 5.09 |
| T20H | 4.26 |
| T20S | 4.19 |
| T20Y | 3.74 |
| T20K | 3.6 |
| T20C | 4.31 |
| T20F | 3.51 |
| T20W | 3.85 |
| D14A | 4.21 |
| D14K | 4.53 |
| D14V | 4.07 |
| D14C | 4.23 |
| D14Y | 3.87 |
| D14H | 4.18 |
| D14F | 3.74 |
| D14I | 3.84 |
| D14E | 4.63 |
| D14T | 4.46 |
| D14P | 4.34 |
| D14R | 4.7 |
| D14G | 4.31 |
| D14L | 3.8 |
| D14W | 3.11 |

| Variant | protein stability index |
| --- | --- |
| D14M | 4 |
| D14S | 4.18 |
| D14Q | 4.32 |
| D14N | 4.4 |
| H17F | 4.16 |
| H17L | 4.09 |
| H17I | 4.11 |
| H17W | 3.84 |
| H17S | 4.54 |
| H17Y | 4.38 |
| H17E | 4.35 |
| H17K | 4.38 |
| H17N | 4.28 |
| H17A | 4.93 |
| H17P | 4.8 |
| H17M | 4.29 |
| H17G | 4.5 |
| H17R | 4.41 |
| H17V | 4.71 |
| H17C | 4.32 |
| H17D | 4.94 |
| H17Q | 4.68 |
| H17T | 4.82 |

Variants of: B2
Assay: as above
Conditions: c terminus: a fixed tail appended

| Variant | protein stability index |
| --- | --- |
| E2C | 2.18 |
| E2M | 3.48 |
| E2N | 3.28 |
| E2A | 2.44 |
| E2T | 2.64 |
| E2P | 3.82 |
| E2V | 2.69 |
| E2L | 1.91 |
| E2D | 3.75 |
| E2I | 3 |
| E2R | 2.85 |
| E2H | 2.8 |
| E2Q | 2.65 |
| E2G | 2.88 |
| E2K | 2.29 |
| E2F | 3.3 |
| E2S | 1.47 |
| S1E | 2.98 |

| Variant | protein stability index |
| --- | --- |
| S1T | 3.09 |
| S1K | 2.67 |
| S1R | 3.55 |
| S1F | 2.65 |
| S1M | 3.28 |
| S1V | 3.6 |
| S1P | 2.9 |
| S1A | 2.51 |
| S1C | 2.6 |
| S1Y | 1.72 |
| S1I | 3.37 |
| S1H | 3.23 |
| S1D | 1.62 |
| S1G | 3.79 |
| S1Q | 2.63 |
| S1N | 2.85 |
| S1L | 3.63 |
| S1W | 2.49 |
